In the supplement of paper PMC9732359:
± gives the uncertainty stated by the source.

Experiment: protein stability index of a GFP-peptide fusion (yeast GPS) (PSI 1-4); higher = more stable; sorted into four equal gates, so the index is relative within each strain
Outline: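 Plasmids isolated from each sorting gate were PCR-amplified and Illumina-sequenced, and barcodes assigned the reads to strains. The gates, four of equal size, were set by GFP/Cherry fluorescence ratio on mid-log cultures in leucine-free medium. These cultures were yeast carrying a pooled library of tiled 17-residue yeast protein peptides fused downstream of GFP on a plasmid that also expresses Cherry. The protein stability index is the sum of every gate's read frequency times its gate number.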

EKFSEKMLKIWTMAFRT [ECM29]
protein stability index (doa10∆): 2 ± 0.11 | protein stability index (pdr5∆): 2.09 ± 0.1 | protein stability index (san1∆): 1.37 ± 0.2 | protein stability index (ubr1∆): 1.48 ± 0.09

FLNEARDKAGRLAEVNL [RPO21]
protein stability index (doa10∆): 2.05 ± 0.074 | protein stability index (pdr5∆): 1.55 ± 0.054 | protein stability index (san1∆): 2.06 ± 0.13 | protein stability index (ubr1∆): 1.47 ± 0.055

PGSVEEVDKSKLITTYI [YDL116W/NUP84]
protein stability index (doa10∆): 3.39 ± 0.18 | protein stability index (pdr5∆): 3.33 ± 0.26 | protein stability index (ubr1∆): 3.42 ± 0.18

KLDKQINMADRSLGLQQ [POP6]
protein stability index (doa10∆): 3.02 ± 0.12 | protein stability index (pdr5∆): 3.46 ± 0.21 | protein stability index (san1∆): 3.02 ± 0.16 | protein stability index (ubr1∆): 3.62 ± 0.26

EQKGQMAKKEGTPKTDS [MED4]
protein stability index (doa10∆): 3.22 ± 0.21 | protein stability index (pdr5∆): 3 ± 0.22 | protein stability index (san1∆): 3.13 ± 0.19

LFPVAAQDSLTVTIASS [RPB8]
protein stability index (doa10∆): 1.22 ± 0.053 | protein stability index (pdr5∆): 1.48 ± 0.049 | protein stability index (san1∆): 1.32 ± 0.16 | protein stability index (ubr1∆): 1.61 ± 0.041

VSISTSVKPHVVEPEHM [SIR4]
protein stability index (doa10∆): 2.54 ± 0.078 | protein stability index (pdr5∆): 2.99 ± 0.089 | protein stability index (san1∆): 2.53 ± 0.087 | protein stability index (ubr1∆): 2.65 ± 0.052

QQKANLLSSSNFEATKK [COR1]
protein stability index (doa10∆): 2.27 ± 0.069 | protein stability index (pdr5∆): 2.5 ± 0.075 | protein stability index (san1∆): 2.1 ± 0.086 | protein stability index (ubr1∆): 1.91 ± 0.05

RHFGMGPHKGKAPRILS [RPL18A]
protein stability index (doa10∆): 2.57 ± 0.14 | protein stability index (pdr5∆): 2.52 ± 0.079 | protein stability index (san1∆): 3.09 ± 0.13 | protein stability index (ubr1∆): 2.73 ± 0.1

NQASTSKRVYKILSPTM [CDC53]
protein stability index (doa10∆): 2.58 ± 0.062 | protein stability index (pdr5∆): 2.57 ± 0.05 | protein stability index (san1∆): 2.54 ± 0.051 | protein stability index (ubr1∆): 2.59 ± 0.067

SSIENNINNNINSTKNG [MED2]
protein stability index (doa10∆): 2.85 ± 0.081 | protein stability index (pdr5∆): 3.11 ± 0.093 | protein stability index (san1∆): 2.88 ± 0.084 | protein stability index (ubr1∆): 3.17 ± 0.063

YLERIELSFYILYSFKL [YML103C/NUP188]
protein stability index (doa10∆): 1.49 ± 0.057 | protein stability index (pdr5∆): 1.37 ± 0.044 | protein stability index (san1∆): 1.2 ± 0.08 | protein stability index (ubr1∆): 1.59 ± 0.037

FLLVPSKQVQVSQQPLS [ECM29]
protein stability index (doa10∆): 1.81 ± 0.092 | protein stability index (pdr5∆): 1.92 ± 0.072 | protein stability index (san1∆): 1.42 ± 0.11 | protein stability index (ubr1∆): 2.17 ± 0.043

PNIFPNLTYYNEKLECI [ITC1]
protein stability index (doa10∆): 2.6 ± 0.07 | protein stability index (pdr5∆): 2.58 ± 0.067 | protein stability index (san1∆): 2.59 ± 0.056 | protein stability index (ubr1∆): 2.68 ± 0.05

MKTPSLTVYLEPGHAAD [RPO21]
protein stability index (doa10∆): 3.01 ± 0.092 | protein stability index (pdr5∆): 2.7 ± 0.079 | protein stability index (san1∆): 2.9 ± 0.059 | protein stability index (ubr1∆): 3 ± 0.073

DENKASATSKPAFSFGA [YJL041W/NSP1]
protein stability index (doa10∆): 2.96 ± 0.063 | protein stability index (pdr5∆): 2.98 ± 0.055 | protein stability index (san1∆): 3 ± 0.05 | protein stability index (ubr1∆): 2.97 ± 0.055

ATSQYLKQDLKKISSFK [YGL172W/NUP49]
protein stability index (doa10∆): 2.9 ± 0.064 | protein stability index (pdr5∆): 2.56 ± 0.064 | protein stability index (san1∆): 3.04 ± 0.051 | protein stability index (ubr1∆): 3.06 ± 0.042

KNNLLIPDLSIQNDIYL [RPN12]
protein stability index (doa10∆): 2.93 ± 0.046 | protein stability index (pdr5∆): 3.02 ± 0.038 | protein stability index (san1∆): 2.98 ± 0.035 | protein stability index (ubr1∆): 2.92 ± 0.047

NVSENQPWQMDTNNEAD [SNF12]
protein stability index (doa10∆): 3.11 ± 0.052 | protein stability index (pdr5∆): 3.26 ± 0.064 | protein stability index (san1∆): 3.17 ± 0.042 | protein stability index (ubr1∆): 3.25 ± 0.04

SETFLQFYVKRWKRFTI [CDC53]
protein stability index (doa10∆): 2.39 ± 0.1 | protein stability index (pdr5∆): 2.74 ± 0.063 | protein stability index (san1∆): 1.73 ± 0.1 | protein stability index (ubr1∆): 2.3 ± 0.074

LKFLYLLDAYSHIESDS [MED1]
protein stability index (doa10∆): 2.46 ± 0.091 | protein stability index (pdr5∆): 2.44 ± 0.075 | protein stability index (san1∆): 2.8 ± 0.061 | protein stability index (ubr1∆): 2.64 ± 0.057

KREEKAMTIYWDDHTKK [CDC53]
protein stability index (doa10∆): 2.5 ± 0.076 | protein stability index (pdr5∆): 2.2 ± 0.068 | protein stability index (san1∆): 3.45 ± 0.072 | protein stability index (ubr1∆): 2.25 ± 0.051

RDDEPKLYQTEPSGIYS [PRE6]
protein stability index (doa10∆): 3.14 ± 0.058 | protein stability index (pdr5∆): 3.07 ± 0.082 | protein stability index (san1∆): 3.09 ± 0.051 | protein stability index (ubr1∆): 3.18 ± 0.046

ATFLKLAAPQLVQMYIG [RPT5]
protein stability index (doa10∆): 1.31 ± 0.25 | protein stability index (san1∆): 1.2 ± 0.21 | protein stability index (ubr1∆): 1.44 ± 0.23

GQVSMSQFNGSGNGSNP [PGD1]
protein stability index (doa10∆): 3.3 ± 0.11 | protein stability index (pdr5∆): 3.3 ± 0.12 | protein stability index (san1∆): 2.93 ± 0.077 | protein stability index (ubr1∆): 3.2 ± 0.068

IKSGVAKLESLLENSVD [MTW1]
protein stability index (doa10∆): 3.29 ± 0.098 | protein stability index (pdr5∆): 3.4 ± 0.091 | protein stability index (san1∆): 3.32 ± 0.055 | protein stability index (ubr1∆): 3.4 ± 0.075

QQDQPEQSEQPEQHQDK [RPN10]
protein stability index (doa10∆): 3.04 ± 0.059 | protein stability index (pdr5∆): 3.14 ± 0.054 | protein stability index (san1∆): 2.83 ± 0.048 | protein stability index (ubr1∆): 3.13 ± 0.058

LVTKILPLKKNEIIGDR [YCG1]
protein stability index (doa10∆): 2.88 ± 0.22 | protein stability index (pdr5∆): 2.9 ± 0.18 | protein stability index (san1∆): 2.6 ± 0.24 | protein stability index (ubr1∆): 2.83 ± 0.27

LKSTKHSISEAENMLEE [SMC4]
protein stability index (doa10∆): 3.06 ± 0.081 | protein stability index (pdr5∆): 2.87 ± 0.12 | protein stability index (san1∆): 3.06 ± 0.077 | protein stability index (ubr1∆): 3.11 ± 0.05

IEIEDEKVSSVLSALEG [RPP2A]
protein stability index (doa10∆): 2.88 ± 0.037 | protein stability index (pdr5∆): 2.29 ± 0.034 | protein stability index (san1∆): 2.81 ± 0.029 | protein stability index (ubr1∆): 2.449 ± 0.024

ALLKLSVKLKQKRLEAG [DIS3]
protein stability index (doa10∆): 1.11 ± 0.077 | protein stability index (pdr5∆): 1.37 ± 0.085 | protein stability index (san1∆): 1.04 ± 0.21 | protein stability index (ubr1∆): 1.15 ± 0.099

SIREDILECDLLICIGT [SIR2]
protein stability index (doa10∆): 2.45 ± 0.058 | protein stability index (pdr5∆): 2.15 ± 0.058 | protein stability index (san1∆): 2.78 ± 0.055 | protein stability index (ubr1∆): 2.39 ± 0.052

AETQGSKVVIDSIIDNI [IRR1]
protein stability index (doa10∆): 2.79 ± 0.098 | protein stability index (pdr5∆): 3.26 ± 0.07 | protein stability index (san1∆): 3.08 ± 0.12 | protein stability index (ubr1∆): 2.99 ± 0.039

LTGTVVSTKMHRTIVIR [RPS11A]
protein stability index (doa10∆): 2.06 ± 0.063 | protein stability index (pdr5∆): 2.25 ± 0.046 | protein stability index (san1∆): 2.14 ± 0.08 | protein stability index (ubr1∆): 1.87 ± 0.037

NNSTSNANTVFSERAAM [SWI1]
protein stability index (doa10∆): 2.63 ± 0.06 | protein stability index (pdr5∆): 3.27 ± 0.097 | protein stability index (san1∆): 2.97 ± 0.062 | protein stability index (ubr1∆): 3.24 ± 0.089

NLATWYHSAGGRDKHAL [SSN3]
protein stability index (doa10∆): 3.49 ± 0.17 | protein stability index (pdr5∆): 3.54 ± 0.15 | protein stability index (san1∆): 3.16 ± 0.11 | protein stability index (ubr1∆): 3.42 ± 0.08

KDWTDTFVYILEKLIFD [SRB8]
protein stability index (doa10∆): 2.39 ± 0.067 | protein stability index (pdr5∆): 2.72 ± 0.058 | protein stability index (san1∆): 2.73 ± 0.074 | protein stability index (ubr1∆): 1.93 ± 0.052

KSGTSHDAIFSIYKYIH [SNF12]
protein stability index (doa10∆): 2.51 ± 0.059 | protein stability index (pdr5∆): 2.66 ± 0.054 | protein stability index (san1∆): 2.34 ± 0.068 | protein stability index (ubr1∆): 2.2 ± 0.046

DQDKVNFASGDNNTASN [RPB3]
protein stability index (doa10∆): 2.85 ± 0.16 | protein stability index (pdr5∆): 2.36 ± 0.14 | protein stability index (ubr1∆): 2.5 ± 0.18

MQANKLDSQETPSTEES [SWI3]
protein stability index (doa10∆): 1.79 ± 0.096 | protein stability index (pdr5∆): 2.35 ± 0.073 | protein stability index (san1∆): 2.39 ± 0.11 | protein stability index (ubr1∆): 2.36 ± 0.056

RYWVQKERSDGKRHIFD [CDC53]
protein stability index (doa10∆): 2.49 ± 0.2 | protein stability index (pdr5∆): 2.98 ± 0.26 | protein stability index (san1∆): 3.46 ± 0.13 | protein stability index (ubr1∆): 2.91 ± 0.14

GTCFGGSKLEDMSKILV [RET1]
protein stability index (doa10∆): 3.04 ± 0.074 | protein stability index (pdr5∆): 3.3 ± 0.096 | protein stability index (san1∆): 3.36 ± 0.065 | protein stability index (ubr1∆): 3.45 ± 0.056

SSSSDIIVPDLIELKSD [YML103C/NUP188]
protein stability index (doa10∆): 2.71 ± 0.085 | protein stability index (pdr5∆): 3.15 ± 0.059 | protein stability index (san1∆): 2.67 ± 0.13 | protein stability index (ubr1∆): 2.7 ± 0.07

CFPQYVNSKQGAINVAN [NNF1]
protein stability index (doa10∆): 2.43 ± 0.29 | protein stability index (ubr1∆): 3.02 ± 0.16

NIAKDLKWKKGIRGKLV [SMC1]
protein stability index (doa10∆): 1.37 ± 0.12 | protein stability index (pdr5∆): 2.04 ± 0.14 | protein stability index (san1∆): 2.23 ± 0.12

PNMSICIFGDAFDVDRA [RPL1A]
protein stability index (doa10∆): 2.78 ± 0.071 | protein stability index (pdr5∆): 2.52 ± 0.072 | protein stability index (san1∆): 1.78 ± 0.084 | protein stability index (ubr1∆): 2.4 ± 0.089

SFSFGAPESMKSTASTA [YOR098C/NUP1]
protein stability index (doa10∆): 3.07 ± 0.069 | protein stability index (pdr5∆): 3.13 ± 0.091 | protein stability index (san1∆): 3.31 ± 0.059 | protein stability index (ubr1∆): 3.12 ± 0.053

NLGSNVRNSFPLDEIPV [REC8]
protein stability index (doa10∆): 2.95 ± 0.074 | protein stability index (pdr5∆): 2.98 ± 0.13 | protein stability index (san1∆): 2.88 ± 0.087 | protein stability index (ubr1∆): 3.06 ± 0.058

EVAKKRSRKTVKAQRPI [RPL24A]
protein stability index (doa10∆): 3.12 ± 0.097 | protein stability index (pdr5∆): 3.29 ± 0.11 | protein stability index (san1∆): 3.18 ± 0.15 | protein stability index (ubr1∆): 3.17 ± 0.16

ILEDYCYFRDFEYCRID [ISW2]
protein stability index (doa10∆): 2.56 ± 0.13 | protein stability index (pdr5∆): 1.35 ± 0.077 | protein stability index (san1∆): 1.4 ± 0.11 | protein stability index (ubr1∆): 1.35 ± 0.038

SFGSKPTGKEEGDGAKA [YJL041W/NSP1]
protein stability index (doa10∆): 3.59 ± 0.12 | protein stability index (pdr5∆): 3.31 ± 0.065 | protein stability index (san1∆): 3.48 ± 0.11 | protein stability index (ubr1∆): 3.21 ± 0.083
